Results: patent US20140193915, “COMPOSITIONS AND METHODS FOR CUSTOM SITE-SPECIFIC DNA RECOMBINASES” (Monsanto Technology, LLC, published 2014)
Changes are numbered by the printed parent chain.

B1: Gin20TALE+5 (dsDNA)
DNA 1: AGAAGGTATTTATATATTATCCAAAACCATGGTTTACAGGACTATATAAATACCTTCT
DNA 2: AGAAGGTATTTATATAGTCCTGTAAACCATGGTTTTGGATAATATATAAATACCTTCT
B2: Gin20TALE+15 (dsDNA)
DNA 1: AGAAGGTATTTATATAGGCACACATGTTATCCAAAACCATGGTTTACAGGACGTTCACACGGTATATAAATACCTTCT
DNA 2: AGAAGGTATTTATATACCGTGTGAACGTCCTGTAAACCATGGTTTTGGATAACATGTGTGCCTATATAAATACCTTCT

Key:
Experiment in all cases: cell_activity; E. coli
[1] = molecular target: T1, pN-TALER N3.2 (synthetic)
T1 chain: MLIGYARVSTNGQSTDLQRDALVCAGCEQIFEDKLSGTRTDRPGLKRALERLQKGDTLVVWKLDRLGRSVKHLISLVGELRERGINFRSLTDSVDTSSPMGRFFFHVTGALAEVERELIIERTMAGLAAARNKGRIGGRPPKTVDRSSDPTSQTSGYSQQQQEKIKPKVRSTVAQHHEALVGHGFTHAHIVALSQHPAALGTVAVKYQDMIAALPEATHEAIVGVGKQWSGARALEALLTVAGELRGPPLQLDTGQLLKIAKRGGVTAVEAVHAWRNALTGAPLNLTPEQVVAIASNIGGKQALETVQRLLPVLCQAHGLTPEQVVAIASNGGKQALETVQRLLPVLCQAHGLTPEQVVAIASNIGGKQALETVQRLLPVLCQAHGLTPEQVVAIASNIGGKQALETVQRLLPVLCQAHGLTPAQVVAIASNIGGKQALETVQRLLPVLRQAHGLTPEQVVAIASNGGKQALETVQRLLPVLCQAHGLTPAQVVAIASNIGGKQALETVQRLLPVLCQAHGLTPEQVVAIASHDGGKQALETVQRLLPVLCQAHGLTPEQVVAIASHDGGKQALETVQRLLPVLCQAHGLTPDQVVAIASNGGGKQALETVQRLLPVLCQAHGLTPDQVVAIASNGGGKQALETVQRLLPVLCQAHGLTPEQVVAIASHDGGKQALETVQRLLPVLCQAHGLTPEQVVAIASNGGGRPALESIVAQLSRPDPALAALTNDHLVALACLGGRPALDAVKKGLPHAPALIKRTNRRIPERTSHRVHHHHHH
Method: (§1) The co-transformed bacteria were plated on media with chloramphenicol, kanamycin, and X-gal then incubated at 37° C. for 18 to 36 hours. Control samples consisted of transformations using the reporter construct alone. Control transformants were similarly plated. The bacterial transformation protocol was either heat shock or electroporation per standard molecular biology techniques.
For each of these N-TALER chimera expression constructs, from one to three independent clones were selected for plasmid purification. These N-TALER chimera expression constructs were co-transformed with five of the N-TALER reporter constructs, as indicated in Table 15. […] In contrast to the result for pN-TALER N4.2.2, the chimera sN-TALER N4.2.2, with the same truncation point but a specific recombinase catalytic domain, reporters with 20, 24, or 40 bp of TALER central sequence length were efficiently recombined (score of 1) while reporters with 30 or 50 bp of TALER central sequence length were not recombined (score of 5). For the chimera sN-TALER N4.2, reporters with 20, 24, or 40 bp of TALER central sequence length were efficiently recombined (score of 1); the reporter with 30 bp of TALER central sequence length was poorly recombined (score of 3); and the reporter with 50 bp of TALER central sequence length was not recombined (score of 5). For the chimera pN-TALER N4.2, the recombination efficiency on the reporters tested varied from intermediate (scores of 3 and 4) to none (score of 5). […] In contrast to the result for sN-TALER N3.2, the chimera pN-TALER N3.2, with the same truncation point but a permissive recombinase catalytic domain, recombination efficiency on the reporters tested varied from efficient (scores of 1.5, 2, and 3) to none (score of 5). For both chimeras sN-TALER V.2 and pN-TALER V.2, there was efficient recombination (scores of 1, 1.5, and 2) of the 5 N-TALER reporter constructs tested.

[2] = molecular target: T2, pN-TALER IV-1-EE2 (GinL7C7-EE2-TALE13) (synthetic); conditions: tags: 6-His
T2 chain: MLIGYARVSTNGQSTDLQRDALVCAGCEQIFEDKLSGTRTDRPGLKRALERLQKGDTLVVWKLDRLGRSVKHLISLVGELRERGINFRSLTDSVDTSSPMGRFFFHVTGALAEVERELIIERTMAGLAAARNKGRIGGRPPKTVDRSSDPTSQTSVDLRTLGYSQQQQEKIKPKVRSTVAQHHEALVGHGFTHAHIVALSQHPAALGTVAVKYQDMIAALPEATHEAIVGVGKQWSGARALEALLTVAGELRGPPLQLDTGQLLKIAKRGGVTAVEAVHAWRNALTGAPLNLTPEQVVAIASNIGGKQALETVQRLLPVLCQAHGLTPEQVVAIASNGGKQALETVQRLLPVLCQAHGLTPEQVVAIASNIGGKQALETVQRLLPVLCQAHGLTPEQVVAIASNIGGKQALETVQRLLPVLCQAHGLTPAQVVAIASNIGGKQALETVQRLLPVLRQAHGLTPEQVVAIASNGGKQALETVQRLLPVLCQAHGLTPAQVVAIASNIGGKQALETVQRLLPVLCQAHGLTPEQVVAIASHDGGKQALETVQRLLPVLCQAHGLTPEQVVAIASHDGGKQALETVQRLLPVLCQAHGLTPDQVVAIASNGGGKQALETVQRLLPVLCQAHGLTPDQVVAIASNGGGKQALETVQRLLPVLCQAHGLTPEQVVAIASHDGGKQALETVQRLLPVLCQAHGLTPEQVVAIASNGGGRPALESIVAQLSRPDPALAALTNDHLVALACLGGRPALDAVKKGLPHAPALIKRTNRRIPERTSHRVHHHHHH
Method: as §1, with “To test for recombination, E. coli DH5alpha cells were co-transformed with different combinations of TALER expression construct and TALER reporter construct pairs (Tables 6 and 7). The N-TALER expression and reporter constructs were in an approximate 1:1 mass ratio during the transformation. The co-transformed” for “The co-transformed”
Two additional N-TALERs, based on N-TALER IV-1, were constructed wherein the GinH106Y recombinase catalytic domain was replaced with either the GinL7C7-EE2 catalytic domain or the GinL7C7-EE3 permissive recombinase catalytic domain. These N-TALERs were labeled pN-TALER IV-1-EE2 (SEQ ID NO:41) and pN-TALER IV-1-EE3 (SEQ ID NO:45), respectively. pN-TALER IV-1-EE2 was tested in combination with seventeen N-TALER reporter constructs and pN-TALER IV-1-EE3 was tested with three reporter constructs (Table 10).

[3] = molecular target: T3, pN-TALER IV-12 (synthetic)
T3 chain: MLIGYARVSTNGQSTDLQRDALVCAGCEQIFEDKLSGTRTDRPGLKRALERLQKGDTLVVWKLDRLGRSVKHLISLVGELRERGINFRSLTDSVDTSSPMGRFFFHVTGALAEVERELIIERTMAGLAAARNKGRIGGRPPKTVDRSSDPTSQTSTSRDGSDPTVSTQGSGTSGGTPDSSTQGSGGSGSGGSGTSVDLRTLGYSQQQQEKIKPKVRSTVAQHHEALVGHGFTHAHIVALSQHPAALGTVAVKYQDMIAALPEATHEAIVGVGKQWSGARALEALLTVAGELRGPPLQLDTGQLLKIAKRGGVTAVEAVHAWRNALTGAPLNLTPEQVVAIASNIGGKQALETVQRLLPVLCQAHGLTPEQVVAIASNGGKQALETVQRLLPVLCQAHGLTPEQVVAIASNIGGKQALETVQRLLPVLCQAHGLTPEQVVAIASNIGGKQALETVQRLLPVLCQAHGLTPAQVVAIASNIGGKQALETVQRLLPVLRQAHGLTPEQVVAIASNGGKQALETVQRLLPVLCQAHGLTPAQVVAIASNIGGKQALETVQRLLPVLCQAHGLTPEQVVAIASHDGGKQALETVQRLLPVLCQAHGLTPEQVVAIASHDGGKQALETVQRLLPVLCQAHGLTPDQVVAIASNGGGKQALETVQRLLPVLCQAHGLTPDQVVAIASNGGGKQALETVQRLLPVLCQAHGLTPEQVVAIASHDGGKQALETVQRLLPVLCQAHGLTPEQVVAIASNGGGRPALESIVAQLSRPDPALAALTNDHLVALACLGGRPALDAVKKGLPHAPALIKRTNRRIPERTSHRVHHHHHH
Method: as §1, with “To test for recombination, E. coli DH5alpha cells were co-transformed with different combinations of TALER expression construct and TALER reporter construct pairs (Tables 6 and 7). The N-TALER expression and reporter constructs were in an approximate 1:1 mass ratio during the transformation. The co-transformed” for “The co-transformed”
(§2) The N-TALER expression constructs representing the N-TALER chimeras with varying linker lengths were co-transformed with N-TALER reporter constructs with TALER central sequence lengths of 18, 20, 24, 30, 40, and 50 bp (Table 13). […] Recombination did occur, but was less efficient with the pN-TALER IV-14 (linker length of 71 amino acids) with each of the N-TALER reporters tested.

[4] = molecular target: T4, sN-TALER IV-12 (synthetic)
T4 chain: T3 chain with A6V, G12D, S14N, D20N, E50K, V70M, V94I, H106Y, T108M, V114M
Method: as §1, with “To test for recombination, E. coli DH5alpha cells were co-transformed with different combinations of TALER expression construct and TALER reporter construct pairs (Tables 6 and 7). The N-TALER expression and reporter constructs were in an approximate 1:1 mass ratio during the transformation. The co-transformed” for “The co-transformed”
as §2

Row | Binder | activity [1] [score] | activity [2] [score] | activity [3] [score] | activity [4] [score]
1 | B1 | 1.5 | 1 |  | 
2 | B2 |  |  | 1 | 1
